Experimental data published in patent publication US20160222130A1 (Astellas, published 2016).

Legend:
Test in all cases: SPR (Biacore T200); Tie2-Fc captured on anti-human IgG (Fc), Fab at 50 nM; mean of 3
[1] = biological target: T1, Human Tie2 (1-452)m3-Fc (human, UniProt Q02763 23-452)
T1 construct: range 1-452
Procedure: (§1) SPR analysis was carried out in order to evaluate the binding activity of the human Tie2 (1-452)-Fc chimera protein and 23 mutant proteins thereof to the fully human 2-16A2-Fab.
(§2) For SPR analysis, Biacore T200 (GE Healthcare) was used. An anti-human IgG (Fc) antibody (Human Antibody Capture Kit, GE Healthcare) was fixed onto a CM5 sensor chip. The human Tie2 (1-452)-Fc chimeric protein and 23 mutant proteins thereof, diluted with HBS-EP (GE Healthcare) at 5 μg/mL, were each allowed for immobilization, and the capture-amount was measured. Thereafter, the fully human 2-16A2-Fab diluted with HBS-EP to 50 nM, the binding amount thereof to the human Tie2 (1-452)-Fc chimeric protein and 23 mutant proteins thereof were measured. Further, by dividing the binding amount with the capture-amount, the binding amount of the antibody in the unit immobilized antigen (hereinafter referred to as a binding ratio) was calculated. The arithmetic mean of three experiments and the relative value of the binding ratio of each mutant proteins when the binding ratio of the human Tie2 (1-452)-Fc chimeric protein was taken as 100% are shown in Table 7.

[2] = biological target: T2, Human Tie2 (1-452)y1-Fc (human, UniProt Q02763 23-452)
T2 construct: range 1-452
Procedure: as §1, §2

[3] = biological target: T3, Human Tie2 (1-452)g5-Fc (human, UniProt Q02763 23-452)
T3 construct: range 1-452
Procedure: as §1, §2

[4] = biological target: T4, Human Tie2 (1-452)A4-Fc (human, UniProt Q02763 23-452)
T4 construct: range 1-452
Procedure: as §1, §2

[5] = biological target: T5, Human Tie2 (1-452)c1-Fc (human, UniProt Q02763 23-452)
T5 construct: range 1-452
Procedure: as §1, §2

[6] = biological target: T6, Human Tie2 (1-452)g1-Fc (human, UniProt Q02763 23-452)
T6 construct: range 1-452
Procedure: as §1, §2

[7] = biological target: T7, Human Tie2 (1-452)r1-Fc (human, UniProt Q02763 23-452)
T7 construct: range 1-452
Procedure: as §1, §2

[8] = biological target: T8, Human Tie2 (1-452)m1-Fc (human, UniProt Q02763 23-452)
T8 construct: range 1-452
Procedure: as §1, §2

[9] = biological target: T9, Human Tie2 (1-452)g3-Fc (human, UniProt Q02763 23-452)
T9 construct: range 1-452
Procedure: as §1, §2

[10] = biological target: T10, Human Tie2 (1-452)A1-Fc (human, UniProt Q02763 23-452)
T10 construct: range 1-452
Procedure: as §1, §2

[11] = biological target: T11, Human Tie2 (1-452)g4-Fc (human, UniProt Q02763 23-452)
T11 construct: range 1-452
Procedure: as §1, §2

[12] = biological target: T12, Human Tie2 (1-452)r3-Fc (human, UniProt Q02763 23-452)
T12 construct: range 1-452
Procedure: as §1, §2

[13] = biological target: T13, Human Tie2 (1-452)g6-Fc (human, UniProt Q02763 23-452)
T13 construct: range 1-452
Procedure: as §1, §2

[14] = biological target: T14, Human Tie2 (1-452)r5-Fc (human, UniProt Q02763 23-452)
T14 construct: range 1-452
Procedure: as §1, §2

[15] = biological target: T15, Human Tie2 (1-452)r6-Fc (human, UniProt Q02763 23-452)
T15 construct: range 1-452
Procedure: as §1, §2

[16] = biological target: T16, Human Tie2 (1-452)A2-Fc (human, UniProt Q02763 23-452)
T16 construct: range 1-452
Procedure: as §1, §2

[17] = biological target: T17, Human Tie2 (1-452)A3-Fc (human, UniProt Q02763 23-452)
T17 construct: range 1-452
Procedure: as §1, §2

[18] = biological target: T18, Human Tie2 (1-452)r7-Fc (human, UniProt Q02763 23-452)
T18 construct: range 1-452
Procedure: as §1, §2

T16 sequence (Q02763 other isoform, or with tags, fused parts or gaps limits assumed, form in doubt): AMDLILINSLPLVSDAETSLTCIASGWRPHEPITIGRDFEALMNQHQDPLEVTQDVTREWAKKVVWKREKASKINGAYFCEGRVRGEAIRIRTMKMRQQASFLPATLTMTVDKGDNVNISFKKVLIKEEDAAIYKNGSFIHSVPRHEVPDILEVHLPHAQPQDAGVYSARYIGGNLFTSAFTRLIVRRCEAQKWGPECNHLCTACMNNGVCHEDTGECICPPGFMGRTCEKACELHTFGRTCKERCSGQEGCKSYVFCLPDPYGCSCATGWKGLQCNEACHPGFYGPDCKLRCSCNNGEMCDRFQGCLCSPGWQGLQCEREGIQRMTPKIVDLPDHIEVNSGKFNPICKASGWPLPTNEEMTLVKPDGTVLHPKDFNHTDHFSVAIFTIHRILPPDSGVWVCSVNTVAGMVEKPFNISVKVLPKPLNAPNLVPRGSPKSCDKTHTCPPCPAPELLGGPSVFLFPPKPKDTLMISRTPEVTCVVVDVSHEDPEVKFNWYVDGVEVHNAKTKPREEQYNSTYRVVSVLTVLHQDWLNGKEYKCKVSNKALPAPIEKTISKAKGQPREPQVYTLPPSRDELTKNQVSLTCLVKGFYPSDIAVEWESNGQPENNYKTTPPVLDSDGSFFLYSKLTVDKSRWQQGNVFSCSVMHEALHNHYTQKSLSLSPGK
T4 sequence (Q02763 other isoform, or with tags, fused parts or gaps limits assumed, form in doubt): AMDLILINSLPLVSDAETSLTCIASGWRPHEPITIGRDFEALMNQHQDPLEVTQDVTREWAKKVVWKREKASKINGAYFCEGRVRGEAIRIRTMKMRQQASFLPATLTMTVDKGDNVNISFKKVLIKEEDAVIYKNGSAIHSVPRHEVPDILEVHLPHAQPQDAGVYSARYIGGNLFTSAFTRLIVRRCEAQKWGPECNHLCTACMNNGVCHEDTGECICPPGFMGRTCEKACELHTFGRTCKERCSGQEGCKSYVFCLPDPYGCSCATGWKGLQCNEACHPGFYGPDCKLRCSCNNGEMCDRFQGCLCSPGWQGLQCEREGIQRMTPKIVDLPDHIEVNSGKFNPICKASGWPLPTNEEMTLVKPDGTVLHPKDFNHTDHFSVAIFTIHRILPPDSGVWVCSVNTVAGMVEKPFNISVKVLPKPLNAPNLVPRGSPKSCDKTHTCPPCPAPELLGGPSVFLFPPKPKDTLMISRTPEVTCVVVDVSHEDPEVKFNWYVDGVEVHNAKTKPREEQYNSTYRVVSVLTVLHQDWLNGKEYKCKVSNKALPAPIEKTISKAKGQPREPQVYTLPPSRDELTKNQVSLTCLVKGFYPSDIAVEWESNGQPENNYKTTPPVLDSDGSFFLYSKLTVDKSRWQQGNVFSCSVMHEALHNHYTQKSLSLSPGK
T15 sequence (Q02763 other isoform, or with tags, fused parts or gaps limits assumed, form in doubt): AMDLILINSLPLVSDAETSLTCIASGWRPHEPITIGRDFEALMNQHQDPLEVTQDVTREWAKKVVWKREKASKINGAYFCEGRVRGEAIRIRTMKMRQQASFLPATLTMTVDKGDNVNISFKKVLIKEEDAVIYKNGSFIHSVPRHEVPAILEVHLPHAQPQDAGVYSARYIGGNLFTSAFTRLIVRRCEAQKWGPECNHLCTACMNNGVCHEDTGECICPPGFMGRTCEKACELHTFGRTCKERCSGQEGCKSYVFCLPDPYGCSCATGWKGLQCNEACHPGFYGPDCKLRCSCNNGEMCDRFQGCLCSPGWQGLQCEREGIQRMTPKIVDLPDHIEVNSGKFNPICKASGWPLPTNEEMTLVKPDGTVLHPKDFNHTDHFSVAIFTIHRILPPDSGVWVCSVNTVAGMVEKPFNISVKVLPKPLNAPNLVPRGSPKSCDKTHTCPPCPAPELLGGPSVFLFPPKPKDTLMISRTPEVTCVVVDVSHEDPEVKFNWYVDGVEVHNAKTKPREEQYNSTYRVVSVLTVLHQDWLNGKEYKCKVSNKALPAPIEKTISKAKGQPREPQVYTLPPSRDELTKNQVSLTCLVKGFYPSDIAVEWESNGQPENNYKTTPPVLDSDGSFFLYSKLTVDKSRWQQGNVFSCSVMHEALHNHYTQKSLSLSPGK
T1 sequence (Q02763 other isoform, or with tags, fused parts or gaps limits assumed, form in doubt): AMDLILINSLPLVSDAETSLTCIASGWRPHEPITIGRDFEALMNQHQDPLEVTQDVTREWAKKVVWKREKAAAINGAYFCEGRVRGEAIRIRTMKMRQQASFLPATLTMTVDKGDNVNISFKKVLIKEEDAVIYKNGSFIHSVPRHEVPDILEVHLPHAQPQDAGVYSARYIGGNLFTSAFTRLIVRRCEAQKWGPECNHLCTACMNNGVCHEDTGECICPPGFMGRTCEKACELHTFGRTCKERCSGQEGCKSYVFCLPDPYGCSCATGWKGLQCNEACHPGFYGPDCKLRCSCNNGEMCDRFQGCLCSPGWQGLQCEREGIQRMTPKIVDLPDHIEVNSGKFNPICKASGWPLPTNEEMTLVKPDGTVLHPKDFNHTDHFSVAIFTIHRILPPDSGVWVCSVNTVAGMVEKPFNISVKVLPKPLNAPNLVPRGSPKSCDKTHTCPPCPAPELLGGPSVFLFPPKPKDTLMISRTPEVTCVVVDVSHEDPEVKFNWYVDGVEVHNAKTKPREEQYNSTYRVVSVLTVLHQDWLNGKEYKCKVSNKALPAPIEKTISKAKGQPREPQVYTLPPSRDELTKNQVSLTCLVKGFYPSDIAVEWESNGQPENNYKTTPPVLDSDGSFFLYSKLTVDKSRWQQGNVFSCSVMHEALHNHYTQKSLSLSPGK
T7 sequence (Q02763 other isoform, or with tags, fused parts or gaps limits assumed, form in doubt): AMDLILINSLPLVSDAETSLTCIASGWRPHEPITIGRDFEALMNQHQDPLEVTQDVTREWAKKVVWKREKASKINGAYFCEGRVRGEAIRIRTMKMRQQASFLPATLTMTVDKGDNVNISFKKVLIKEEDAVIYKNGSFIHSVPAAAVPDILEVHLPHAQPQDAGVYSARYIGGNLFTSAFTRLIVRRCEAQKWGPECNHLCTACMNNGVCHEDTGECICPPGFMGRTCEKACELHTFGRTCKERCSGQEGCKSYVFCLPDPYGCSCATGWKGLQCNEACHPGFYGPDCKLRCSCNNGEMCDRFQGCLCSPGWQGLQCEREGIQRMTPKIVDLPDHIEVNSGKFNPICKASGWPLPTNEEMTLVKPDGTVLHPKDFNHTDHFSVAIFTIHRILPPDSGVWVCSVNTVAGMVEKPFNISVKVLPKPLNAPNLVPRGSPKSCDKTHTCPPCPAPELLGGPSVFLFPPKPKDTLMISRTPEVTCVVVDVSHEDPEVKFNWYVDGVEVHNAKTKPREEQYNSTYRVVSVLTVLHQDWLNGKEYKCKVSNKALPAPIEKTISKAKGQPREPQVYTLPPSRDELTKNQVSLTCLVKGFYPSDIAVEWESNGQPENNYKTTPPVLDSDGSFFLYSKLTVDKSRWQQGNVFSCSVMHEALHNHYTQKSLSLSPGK
T6 sequence (Q02763 other isoform, or with tags, fused parts or gaps limits assumed, form in doubt): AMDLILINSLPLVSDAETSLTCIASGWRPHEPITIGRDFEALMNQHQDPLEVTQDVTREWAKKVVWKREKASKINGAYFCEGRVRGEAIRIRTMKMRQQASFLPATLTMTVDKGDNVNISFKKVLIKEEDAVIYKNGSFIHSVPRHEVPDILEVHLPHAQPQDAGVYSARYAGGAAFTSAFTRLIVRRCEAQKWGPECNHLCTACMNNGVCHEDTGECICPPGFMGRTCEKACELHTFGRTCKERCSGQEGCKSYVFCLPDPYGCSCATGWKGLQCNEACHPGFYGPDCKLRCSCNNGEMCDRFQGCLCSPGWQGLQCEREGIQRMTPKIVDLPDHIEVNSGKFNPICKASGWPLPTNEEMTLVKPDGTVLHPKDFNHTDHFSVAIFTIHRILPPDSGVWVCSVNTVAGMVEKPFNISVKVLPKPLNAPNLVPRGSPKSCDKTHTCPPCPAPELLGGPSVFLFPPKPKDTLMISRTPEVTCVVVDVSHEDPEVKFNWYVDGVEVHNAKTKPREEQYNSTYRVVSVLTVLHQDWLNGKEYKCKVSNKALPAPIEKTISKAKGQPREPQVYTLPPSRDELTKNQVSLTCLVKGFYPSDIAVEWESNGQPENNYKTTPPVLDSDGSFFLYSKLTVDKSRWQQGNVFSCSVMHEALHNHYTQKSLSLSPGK
T10 sequence (Q02763 other isoform, or with tags, fused parts or gaps limits assumed, form in doubt): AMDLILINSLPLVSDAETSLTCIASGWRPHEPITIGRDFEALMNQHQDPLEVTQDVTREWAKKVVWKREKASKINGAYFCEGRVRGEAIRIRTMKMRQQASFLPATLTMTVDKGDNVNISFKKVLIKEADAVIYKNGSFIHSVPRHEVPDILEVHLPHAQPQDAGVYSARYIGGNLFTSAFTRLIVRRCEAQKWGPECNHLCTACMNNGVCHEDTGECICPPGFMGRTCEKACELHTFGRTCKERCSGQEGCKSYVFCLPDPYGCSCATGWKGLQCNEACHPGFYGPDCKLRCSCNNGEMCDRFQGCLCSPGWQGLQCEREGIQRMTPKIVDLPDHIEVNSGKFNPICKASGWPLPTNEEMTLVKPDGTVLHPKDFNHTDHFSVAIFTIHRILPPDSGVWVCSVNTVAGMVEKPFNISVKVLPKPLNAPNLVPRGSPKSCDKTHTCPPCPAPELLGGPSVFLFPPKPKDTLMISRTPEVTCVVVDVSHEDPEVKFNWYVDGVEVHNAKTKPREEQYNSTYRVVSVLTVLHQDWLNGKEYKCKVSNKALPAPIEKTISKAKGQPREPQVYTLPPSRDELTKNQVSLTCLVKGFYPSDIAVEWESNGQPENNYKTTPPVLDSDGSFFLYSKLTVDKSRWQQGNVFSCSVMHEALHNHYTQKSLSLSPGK

B1: fully human 2-16A2-Fab (Fab, V domains shown)
VH: EVQLVESGGGLVQPGGSLRLSCAASGFTFDDYAMHWVRQAPGKGLEWVAGISWNSGSIVYADSVKGRFTISRDNSKNTLYLQMNSLRAEDTAVYYCAKDIREQLVEDAFDIWGQGTLVTVSS
VL: DIQMTQSPSSLSASVGDRVTITCRSSQSLLHSHRYNYLDWYQQKPGKAPKLLIYLGSNRASGVPSRFSGSGSGTDFTLTISSVQPEDFATYYCMQTLQTPLTFGQGTKVEIKR
notes: also called Fab of the fully human 2-16A2
Question: Which results are given for B1?
Answer: Binding ratio [1]: 0.04; Relative value (%) of binding ratio (human Tie2 (1-452)-Fc chimeric protein = 100%) [1]: 12%; Binding ratio [2]: 0.25; Relative value (%) of binding ratio (human Tie2 (1-452)-Fc chimeric protein = 100%) [2]: 87%; Binding ratio [3]: 0.03; Relative value (%) of binding ratio (human Tie2 (1-452)-Fc chimeric protein = 100%) [3]: 9%; Binding ratio [4]: 0.13; Relative value (%) of binding ratio (human Tie2 (1-452)-Fc chimeric protein = 100%) [4]: 44%; Binding ratio [5]: 0.54; Relative value (%) of binding ratio (human Tie2 (1-452)-Fc chimeric protein = 100%) [5]: 189%; Binding ratio [6]: 0; Relative value (%) of binding ratio (human Tie2 (1-452)-Fc chimeric protein = 100%) [6]: 0%; Binding ratio [7]: 0.29; Relative value (%) of binding ratio (human Tie2 (1-452)-Fc chimeric protein = 100%) [7]: 102%; Binding ratio [8]: 0.31; Relative value (%) of binding ratio (human Tie2 (1-452)-Fc chimeric protein = 100%) [8]: 107%; Binding ratio [9]: 0.06; Relative value (%) of binding ratio (human Tie2 (1-452)-Fc chimeric protein = 100%) [9]: 23%; Binding ratio [10]: 0.1; Relative value (%) of binding ratio (human Tie2 (1-452)-Fc chimeric protein = 100%) [10]: 34%; Binding ratio [11]: 0.02; Relative value (%) of binding ratio (human Tie2 (1-452)-Fc chimeric protein = 100%) [11]: 7%; Binding ratio [12]: 0.34; Relative value (%) of binding ratio (human Tie2 (1-452)-Fc chimeric protein = 100%) [12]: 119%; Binding ratio [13]: 0.38; Relative value (%) of binding ratio (human Tie2 (1-452)-Fc chimeric protein = 100%) [13]: 131%; Binding ratio [14]: 0.29; Relative value (%) of binding ratio (human Tie2 (1-452)-Fc chimeric protein = 100%) [14]: 99%; Binding ratio [15]: 0.29; Relative value (%) of binding ratio (human Tie2 (1-452)-Fc chimeric protein = 100%) [15]: 100%; Binding ratio [16]: 0.08; Relative value (%) of binding ratio (human Tie2 (1-452)-Fc chimeric protein = 100%) [16]: 29%; Binding ratio [17]: 0.17; Relative value (%) of binding ratio (human Tie2 (1-452)-Fc chimeric protein = 100%) [17]: 59%; Binding ratio [18]: 0.3; Relative value (%) of binding ratio (human Tie2 (1-452)-Fc chimeric protein = 100%) [18]: 106%
